This note sets out measurements from US20060147420A1 (University of Texas, published 2006).

Where no end group is shown, it is not given here.

In this assay the target is T1, EGFRvIII (on U-87.ΔEGFRvIII cells) (human, UniProt P00533 25-1210).
T1 construct: whole, on cells; also called de2-7 EGFR; mutant EGFR
Kind of assay: flow cytometry, membrane fluorescence staining of cell suspensions with 1 uM FITC-peptide for 30 min.

B1: anti-EGFRvIII peptide (PEPCH1)-FITC (peptide)
peptide: HFLIIGFMRRALCGA
modifications: also: FITC label, position not given here
notes: Synthetic peptide after Campa et al., 2000; Used at 1 uM as a FITC conjugate; also called PEPHC1; PEPHC1 ligand
For B1, the binding result is “binds”.
